The values below come from PMC10432850, “NME3 binds to phosphatidic acid and mediates PLD6-induced mitochondrial tethering” (The Journal of Cell Biology, 2023).

This data set deals with the molecule itself. Kind of data set: cross-linking; 4 uM purified protein cross-linked with glutaraldehyde, detected by Western blotting.

B1: NME3^WT-His (natural protein, human, UniProt Q13232 1-169, looked up)
chain: MICLVLTIFANLFPAACTGAHERTFLAVKPDGVQRRLVGEIVRRFERKGFKLVALKLVQASEELLREHYAELRERPFYGRLVKYMASGPVVAMVWQGLDVVRTSRALIGATNPADAPPGTIRGDFCIEVGKNLIHGSDSVESARREIALWFRADELLCWEDSAGHWLYE
notes: NME3 (nucleoside diphosphate kinase 3), human, wild type; also called NME3-His; source: E. coli BL21, purified (HisPur Ni-NTA resin, dialysed); not shown: His, C-terminal, kept
Regarding B1, the binding result is “binds”.

B2: NME3^ΔN-His (domain or fragment, human, UniProt Q13232 18-169, looked up)
chain: TGAHERTFLAVKPDGVQRRLVGEIVRRFERKGFKLVALKLVQASEELLREHYAELRERPFYGRLVKYMASGPVVAMVWQGLDVVRTSRALIGATNPADAPPGTIRGDFCIEVGKNLIHGSDSVESARREIALWFRADELLCWEDSAGHWLYE
notes: NME3 (nucleoside diphosphate kinase 3), human, lacking the N-terminal 17 amino acids (N17); also called N17 truncated NME3; source: E. coli BL21, purified (HisPur Ni-NTA resin, dialysed); not shown: His, C-terminal, kept
In the case of B2, the “stoichiometry N” value came out at 6.

By stoichiometry N is commonly meant a count of units in the complex or per binding partner.
